Assay results taken from patent US20130157929A1, “GLUCAGON ANALOGUES” (ZEALAND PHARMA A/S, published 2013).
Starred links: 1 amine or outer side, 2 acyl side, 3 side chain; linkers in the order of their positions; H or OH if unused. Non-standard residues stand in square brackets, D forms with d. Groups on a side chain read outwards from the residue. *: point of attachment. γGlu = O=C(O)[C@H](CCC(=O)[*:2])N[*:1]; Palmitoyl = CCCCCCCCCCCCCCCC(=O)*; hPhe = N[C@@H](CCc1ccccc1)C(=O)O; Aib = CC(C)(N)C(=O)O

Legend:
[1] = molecular target: human glucagon receptor (glucagon-R) (human, UniProt P47871); experiment: cell-based or functional assay
[2] = molecular target: human glucagon-like peptide 1 receptor (GLP-1R) (human, UniProt P43220); experiment: cell-based or functional assay

B1: Compound 16 (peptide)
peptide: H-H[Aib]VGTFTSDYSKYLDSK([γGlu-Palmitoyl])AAHDFVEWLLSA-NH2
SMILES: CCCCCCCCCCCCCCCC(=O)N[C@@H](CCC(=O)NCCCC[C@H](NC(=O)[C@H](CO)NC(=O)[C@H](CC(=O)O)NC(=O)[C@H](CC(C)C)NC(=O)[C@H](Cc1ccc(O)cc1)NC(=O)[C@H](CCCCN)NC(=O)[C@H](CO)NC(=O)[C@H](Cc1ccc(O)cc1)NC(=O)[C@H](CC(=O)O)NC(=O)[C@H](CO)NC(=O)[C@@H](NC(=O)[C@H](Cc1ccccc1)NC(=O)[C@@H](NC(=O)CNC(=O)[C@@H](NC(=O)C(C)(C)NC(=O)[C@@H](N)Cc1c[nH]cn1)C(C)C)[C@@H](C)O)[C@@H](C)O)C(=O)N[C@@H](C)C(=O)N[C@@H](C)C(=O)N[C@@H](Cc1c[nH]cn1)C(=O)N[C@@H](CC(=O)O)C(=O)N[C@@H](Cc1ccccc1)C(=O)N[C@H](C(=O)N[C@@H](CCC(=O)O)C(=O)N[C@@H](Cc1c[nH]c2ccccc12)C(=O)N[C@@H](CC(C)C)C(=O)N[C@@H](CC(C)C)C(=O)N[C@@H](CO)C(=O)N[C@@H](C)C(N)=O)C(C)C)C(=O)O
[1]
  EC50 (nM) GluR, cAMP formation: 3 nM
[2]
  EC50 (nM) GLP-1R, cAMP formation: 0.13 nM

B2: Compound 13 (peptide)
peptide: H-H[Aib]LGTFTSDYSKYLDSK([γGlu-Palmitoyl])AAHDFVEWLLSA-NH2
SMILES: CCCCCCCCCCCCCCCC(=O)N[C@@H](CCC(=O)NCCCC[C@H](NC(=O)[C@H](CO)NC(=O)[C@H](CC(=O)O)NC(=O)[C@H](CC(C)C)NC(=O)[C@H](Cc1ccc(O)cc1)NC(=O)[C@H](CCCCN)NC(=O)[C@H](CO)NC(=O)[C@H](Cc1ccc(O)cc1)NC(=O)[C@H](CC(=O)O)NC(=O)[C@H](CO)NC(=O)[C@@H](NC(=O)[C@H](Cc1ccccc1)NC(=O)[C@@H](NC(=O)CNC(=O)[C@H](CC(C)C)NC(=O)C(C)(C)NC(=O)[C@@H](N)Cc1c[nH]cn1)[C@@H](C)O)[C@@H](C)O)C(=O)N[C@@H](C)C(=O)N[C@@H](C)C(=O)N[C@@H](Cc1c[nH]cn1)C(=O)N[C@@H](CC(=O)O)C(=O)N[C@@H](Cc1ccccc1)C(=O)N[C@H](C(=O)N[C@@H](CCC(=O)O)C(=O)N[C@@H](Cc1c[nH]c2ccccc12)C(=O)N[C@@H](CC(C)C)C(=O)N[C@@H](CC(C)C)C(=O)N[C@@H](CO)C(=O)N[C@@H](C)C(N)=O)C(C)C)C(=O)O
[1]
  EC50 (nM) GluR, cAMP formation: 11 nM
[2]
  EC50 (nM) GLP-1R, cAMP formation: 0.28 nM

B3: Compound 17 (peptide)
peptide: H-H[Aib]AGTFTSDYSKYLDSK([γGlu-Palmitoyl])AAHDFVEWLLSA-NH2
SMILES: CCCCCCCCCCCCCCCC(=O)N[C@@H](CCC(=O)NCCCC[C@H](NC(=O)[C@H](CO)NC(=O)[C@H](CC(=O)O)NC(=O)[C@H](CC(C)C)NC(=O)[C@H](Cc1ccc(O)cc1)NC(=O)[C@H](CCCCN)NC(=O)[C@H](CO)NC(=O)[C@H](Cc1ccc(O)cc1)NC(=O)[C@H](CC(=O)O)NC(=O)[C@H](CO)NC(=O)[C@@H](NC(=O)[C@H](Cc1ccccc1)NC(=O)[C@@H](NC(=O)CNC(=O)[C@H](C)NC(=O)C(C)(C)NC(=O)[C@@H](N)Cc1c[nH]cn1)[C@@H](C)O)[C@@H](C)O)C(=O)N[C@@H](C)C(=O)N[C@@H](C)C(=O)N[C@@H](Cc1c[nH]cn1)C(=O)N[C@@H](CC(=O)O)C(=O)N[C@@H](Cc1ccccc1)C(=O)N[C@H](C(=O)N[C@@H](CCC(=O)O)C(=O)N[C@@H](Cc1c[nH]c2ccccc12)C(=O)N[C@@H](CC(C)C)C(=O)N[C@@H](CC(C)C)C(=O)N[C@@H](CO)C(=O)N[C@@H](C)C(N)=O)C(C)C)C(=O)O
[1]
  EC50 (nM) GluR, cAMP formation: 3.4 nM
[2]
  EC50 (nM) GLP-1R, cAMP formation: 0.09 nM

B4: Compound 15 (peptide)
peptide: H-H[Aib]WGTFTSDYSKYLDSK([γGlu-Palmitoyl])AAHDFVEWLLSA-NH2
SMILES: CCCCCCCCCCCCCCCC(=O)N[C@@H](CCC(=O)NCCCC[C@H](NC(=O)[C@H](CO)NC(=O)[C@H](CC(=O)O)NC(=O)[C@H](CC(C)C)NC(=O)[C@H](Cc1ccc(O)cc1)NC(=O)[C@H](CCCCN)NC(=O)[C@H](CO)NC(=O)[C@H](Cc1ccc(O)cc1)NC(=O)[C@H](CC(=O)O)NC(=O)[C@H](CO)NC(=O)[C@@H](NC(=O)[C@H](Cc1ccccc1)NC(=O)[C@@H](NC(=O)CNC(=O)[C@H](Cc1c[nH]c2ccccc12)NC(=O)C(C)(C)NC(=O)[C@@H](N)Cc1c[nH]cn1)[C@@H](C)O)[C@@H](C)O)C(=O)N[C@@H](C)C(=O)N[C@@H](C)C(=O)N[C@@H](Cc1c[nH]cn1)C(=O)N[C@@H](CC(=O)O)C(=O)N[C@@H](Cc1ccccc1)C(=O)N[C@H](C(=O)N[C@@H](CCC(=O)O)C(=O)N[C@@H](Cc1c[nH]c2ccccc12)C(=O)N[C@@H](CC(C)C)C(=O)N[C@@H](CC(C)C)C(=O)N[C@@H](CO)C(=O)N[C@@H](C)C(N)=O)C(C)C)C(=O)O
[1]
  EC50 (nM) GluR, cAMP formation: 43 nM
[2]
  EC50 (nM) GLP-1R, cAMP formation: 5.8 nM

B5: Compound 11 (peptide)
peptide: H-H[Aib]Q[Aib]TFTSDYSKYLDSK([γGlu-Palmitoyl])AAHDFVEWLLSA-NH2
SMILES: CCCCCCCCCCCCCCCC(=O)N[C@@H](CCC(=O)NCCCC[C@H](NC(=O)[C@H](CO)NC(=O)[C@H](CC(=O)O)NC(=O)[C@H](CC(C)C)NC(=O)[C@H](Cc1ccc(O)cc1)NC(=O)[C@H](CCCCN)NC(=O)[C@H](CO)NC(=O)[C@H](Cc1ccc(O)cc1)NC(=O)[C@H](CC(=O)O)NC(=O)[C@H](CO)NC(=O)[C@@H](NC(=O)[C@H](Cc1ccccc1)NC(=O)[C@@H](NC(=O)C(C)(C)NC(=O)[C@H](CCC(N)=O)NC(=O)C(C)(C)NC(=O)[C@@H](N)Cc1c[nH]cn1)[C@@H](C)O)[C@@H](C)O)C(=O)N[C@@H](C)C(=O)N[C@@H](C)C(=O)N[C@@H](Cc1c[nH]cn1)C(=O)N[C@@H](CC(=O)O)C(=O)N[C@@H](Cc1ccccc1)C(=O)N[C@H](C(=O)N[C@@H](CCC(=O)O)C(=O)N[C@@H](Cc1c[nH]c2ccccc12)C(=O)N[C@@H](CC(C)C)C(=O)N[C@@H](CC(C)C)C(=O)N[C@@H](CO)C(=O)N[C@@H](C)C(N)=O)C(C)C)C(=O)O
[1]
  EC50 (nM) GluR, cAMP formation: 5.1 nM
[2]
  EC50 (nM) GLP-1R, cAMP formation: 22 nM

B6: Compound 12 (peptide)
peptide: H-H[Aib]QFTFTSDYSKYLDSK([γGlu-Palmitoyl])AAHDFVEWLLSA-NH2
SMILES: CCCCCCCCCCCCCCCC(=O)N[C@@H](CCC(=O)NCCCC[C@H](NC(=O)[C@H](CO)NC(=O)[C@H](CC(=O)O)NC(=O)[C@H](CC(C)C)NC(=O)[C@H](Cc1ccc(O)cc1)NC(=O)[C@H](CCCCN)NC(=O)[C@H](CO)NC(=O)[C@H](Cc1ccc(O)cc1)NC(=O)[C@H](CC(=O)O)NC(=O)[C@H](CO)NC(=O)[C@@H](NC(=O)[C@H](Cc1ccccc1)NC(=O)[C@@H](NC(=O)[C@H](Cc1ccccc1)NC(=O)[C@H](CCC(N)=O)NC(=O)C(C)(C)NC(=O)[C@@H](N)Cc1c[nH]cn1)[C@@H](C)O)[C@@H](C)O)C(=O)N[C@@H](C)C(=O)N[C@@H](C)C(=O)N[C@@H](Cc1c[nH]cn1)C(=O)N[C@@H](CC(=O)O)C(=O)N[C@@H](Cc1ccccc1)C(=O)N[C@H](C(=O)N[C@@H](CCC(=O)O)C(=O)N[C@@H](Cc1c[nH]c2ccccc12)C(=O)N[C@@H](CC(C)C)C(=O)N[C@@H](CC(C)C)C(=O)N[C@@H](CO)C(=O)N[C@@H](C)C(N)=O)C(C)C)C(=O)O
[1]
  EC50 (nM) GluR, cAMP formation: 25 nM
[2]
  EC50 (nM) GLP-1R, cAMP formation: 12 nM

B7: Compound 10 (peptide)
peptide: H-H[Aib]QETFTSDYSKYLDSK([γGlu-Palmitoyl])AAHDFVEWLLSA-NH2
SMILES: CCCCCCCCCCCCCCCC(=O)N[C@@H](CCC(=O)NCCCC[C@H](NC(=O)[C@H](CO)NC(=O)[C@H](CC(=O)O)NC(=O)[C@H](CC(C)C)NC(=O)[C@H](Cc1ccc(O)cc1)NC(=O)[C@H](CCCCN)NC(=O)[C@H](CO)NC(=O)[C@H](Cc1ccc(O)cc1)NC(=O)[C@H](CC(=O)O)NC(=O)[C@H](CO)NC(=O)[C@@H](NC(=O)[C@H](Cc1ccccc1)NC(=O)[C@@H](NC(=O)[C@H](CCC(=O)O)NC(=O)[C@H](CCC(N)=O)NC(=O)C(C)(C)NC(=O)[C@@H](N)Cc1c[nH]cn1)[C@@H](C)O)[C@@H](C)O)C(=O)N[C@@H](C)C(=O)N[C@@H](C)C(=O)N[C@@H](Cc1c[nH]cn1)C(=O)N[C@@H](CC(=O)O)C(=O)N[C@@H](Cc1ccccc1)C(=O)N[C@H](C(=O)N[C@@H](CCC(=O)O)C(=O)N[C@@H](Cc1c[nH]c2ccccc12)C(=O)N[C@@H](CC(C)C)C(=O)N[C@@H](CC(C)C)C(=O)N[C@@H](CO)C(=O)N[C@@H](C)C(N)=O)C(C)C)C(=O)O
[1]
  EC50 (nM) GluR, cAMP formation: 15 nM
[2]
  EC50 (nM) GLP-1R, cAMP formation: 20 nM

B8: Compound 14 (peptide)
peptide: H-H[Aib][hPhe]GTFTSDYSKYLDSK([γGlu-Palmitoyl])AAHDFVEWLLSA-NH2
SMILES: CCCCCCCCCCCCCCCC(=O)N[C@@H](CCC(=O)NCCCC[C@H](NC(=O)[C@H](CO)NC(=O)[C@H](CC(=O)O)NC(=O)[C@H](CC(C)C)NC(=O)[C@H](Cc1ccc(O)cc1)NC(=O)[C@H](CCCCN)NC(=O)[C@H](CO)NC(=O)[C@H](Cc1ccc(O)cc1)NC(=O)[C@H](CC(=O)O)NC(=O)[C@H](CO)NC(=O)[C@@H](NC(=O)[C@H](Cc1ccccc1)NC(=O)[C@@H](NC(=O)CNC(=O)[C@H](CCc1ccccc1)NC(=O)C(C)(C)NC(=O)[C@@H](N)Cc1c[nH]cn1)[C@@H](C)O)[C@@H](C)O)C(=O)N[C@@H](C)C(=O)N[C@@H](C)C(=O)N[C@@H](Cc1c[nH]cn1)C(=O)N[C@@H](CC(=O)O)C(=O)N[C@@H](Cc1ccccc1)C(=O)N[C@H](C(=O)N[C@@H](CCC(=O)O)C(=O)N[C@@H](Cc1c[nH]c2ccccc12)C(=O)N[C@@H](CC(C)C)C(=O)N[C@@H](CC(C)C)C(=O)N[C@@H](CO)C(=O)N[C@@H](C)C(N)=O)C(C)C)C(=O)O
[1]
  EC50 (nM) GluR, cAMP formation: 8.9 nM
[2]
  EC50 (nM) GLP-1R, cAMP formation: 3.5 nM
